For series [1], the target named is SBT189. The conditions noted are these: read-out: apparent KD for azide; anion binding to the enzyme-substrate complex. From the text: The acylation reaction: Step 2 describes conversion of the ternary complex into an acyl-enzyme with the concomitant release to the C-terminal portion of the substrate. With substrates used in phage display, the GB domain is released concomitantly with the acylation step. If a fluorescent reporter group is attached to subtilisin, a decrease in energy transfer enables time-dependent quantitation of acylation.

Series [2] has as its target SBT189-Dabcyl conjugate (Bacillus amyloliquefaciens (Bacillus velezensis)) (UniProt P00782). The series is described as follows: single turn-over kinetics, quenching of GFP fluorescence by Dabcyl; 0.1M KPO4, pH 7.2, 5 mM azide, 22° C.
The test system of series [3] is GA-PFRAL-S-GB.
In series [4] the target is T1, prodomain variant pS156.
T1 chain: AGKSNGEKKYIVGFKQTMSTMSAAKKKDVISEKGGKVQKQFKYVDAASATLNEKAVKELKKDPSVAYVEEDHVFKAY

The target in series [5] is T2, prodomain variant pS170.
T2 chain: T1 chain with M18Y, S19K

The target in series [6] is T3, subtilisin variant SBT189 (Bacillus amyloliquefaciens (Bacillus …, UniProt P00782 108-382)).
T3 construct: Engineered subtilisin BPN' variant with D32A; also called S189; RSUB1
T3 chain: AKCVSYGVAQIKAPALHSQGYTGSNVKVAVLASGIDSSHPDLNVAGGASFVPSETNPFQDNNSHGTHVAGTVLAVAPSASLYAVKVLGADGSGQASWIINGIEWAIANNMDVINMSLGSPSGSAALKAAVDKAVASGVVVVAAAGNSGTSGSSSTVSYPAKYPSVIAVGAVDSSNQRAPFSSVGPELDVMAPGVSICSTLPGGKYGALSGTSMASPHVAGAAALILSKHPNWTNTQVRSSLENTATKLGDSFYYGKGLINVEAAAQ
The series is described as follows: transient state kinetics with the FRET peptide.

For series [7], the target named is GB-GFP fusion protein with cognate variation LFRAM-SA, P06654.
The target in series [8] is GB-GFP fusion protein with cognate variation LYRAL-SA, P06654.
The target in series [9] is GB-LFRAL-SA-GFP, P06654.
For series [10], the target named is GB-GFP fusion protein with cognate variation VFKAM-SG, P06654.
In series [11] the target is GB-GFP fusion protein with cognate variation LFQSL-SA, P06654.
The target of series [12] is GB-GFP fusion protein with cognate variation LFRAY-SA, P06654.
Series [13] has as its target GB-GFP fusion protein with cognate variation LLRAL-SA, P06654.
Series [14] deals with GB-GFP fusion protein with cognate variation LFRAL-MA, P06654.
The target in series [15] is GA-PFRAL-S-GB. This is another data set of the same source.
Series [16] has as its target T3, subtilisin variant SBT189. The series is described as follows: complex formed at 100 µM for the activation cascade. The method, then:
(§1) To do this complexes of SBT189 were formed with two different prodomain inhibitors. The first complex contained 100 μM of SBT189 and prodomain variant pS156, and the second complex contained 100 μM SBT189 and prodomain variant pS170. To start the activation cascade, 10 nM wild type subtilisin was added to each complex. Wild type subtilisin is able to cleave both the loop sequence MSTM (SEQ ID NO:23) in pS156 and the loop sequence YKTM (SEQ ID NO:22) in pS170. After 5 minutes of digestion, the wild type subtilisin was inactivated by the addition of EDTA to 1 mM and heating to 55° C. for 10 minutes. Azide was then added to the reactions to 10 mM and the activity of free SBT189 subtilisin was then measured as a function of time. The release of free SBT189 from the pS156 complex occurs at a rate of about 1 days⁻¹. This is because the cleavage of the loop sequence MSTM (SEQ ID NO:23) by SBT189 is very slow. In contrast, the complete activation of SBT189 from the pS170 complex occurs within 10 minutes. Because SBT189 can readily cleave the loop sequence YKTL (SEQ ID NO:24), SBT189 is rapidly released after the self-activating chain reaction is initiated by wild type subtilisin. Thus the protease signal from the pS170 complex increases about 10⁴-fold in 10 minutes (from 10 nM to 100 μM).

The subject of series [17] is SBT189. The series is described as follows: Activation cascade: release of free SBT189 from prodomain inhibitor complexes. It counts as biochemical, Bacillus amyloliquefaciens. The method, then:
as §1, with “days^−1.” for “days⁻¹.”, “10^4-fold” for “10⁴-fold”

Setting [18] is: 100 μM complex, started with 10 nM wild type subtilisin, 10 mM azide.

Substitutions are numbered along the chain they refer to. Numbers in names are those of the source. Primed or numbered codes have the meaning given here. No end group written: not given here. *: point of attachment. Dabcyl′ = CN(C)c1ccc(/N=N/c2ccc(C(=O)*)cc2)cc1

For orientation: koff means the rate constant with which the complex falls apart. Low readings indicate a long-lived complex, high ones a short-lived complex.

As for `[N-]=[N+]=[N-]` [azide], in [1], the Kd was 50 mM.

On to “GB-LFRAL-SA-GFP (from UniProt P06654 228-282)”, for which the KS in series [2] turned out to be 16 µM.

“GB-GFP fusion protein with cognate variation LFRAY-SA (from UniProt P06654 228-282)” registered a KS in [2] of 1900 µM.

Regarding “GB-GFP fusion protein with cognate variation LYRAL-SA (from UniProt P06654 228-282)”, the KS in series [2] is 88 µM.

In the case of “GB-GFP fusion protein with cognate variation LFQSL-SA (from UniProt P06654 228-282)”, in series [2], the KS was found to be 66 µM.

Turning to “GB-GFP fusion protein with cognate variation VFKAM-SG (from UniProt P06654 228-282)”, the KS in series [2] stood at 43 µM.

Take “GB-GFP fusion protein with cognate variation LFRAL-MA (from UniProt P06654 228-282)”: the KS in series [2] is 24 µM.

“GB-GFP fusion protein with cognate variation LFRAM-SA (from UniProt P06654 228-282)” showed a KS in [2] of 36 µM.

Turning to “subtilisin synthesized as a fusion protein on the surface of M13 phage”, the “enrichment of phagemid relative to helper phage after one round of catch and release selection” value in [3] is listed as 350 fold enrichment.

For “GB-GFP fusion protein with cognate variation LLRAL-SA (from UniProt P06654 228-282)”, in series [2], the KS was 670 µM.

B1: wild type subtilisin (protein)
chain: AQSVPYGVSQIKAPALHSQGYTGSNVKVAVIDSGIDSSHPDLKVAGGASMVPSETNPFQDNNSHGTHVAGTVAALNNSIGVLGVAPSASLYAVKVLGADGSGQYSWIINGIEWAIANNMDVINMSLGGPSGSAALKAAVDKAVASGVVVVAAAGNEGTSGSSSTVGYPGKYPSVIAVGAVDSSNQRASFSSVGPELDVMAPGVSIQSTLPGNKYGAYNGTSMASPHVAGAAALILSKHPNWTNTQVRSSLENTTTKLGDSFYYGKGLINVQAAAQ
Consider B1, for which the “cleavage of the prodomain loop” value in [4] and in series [5] was “able to cleave” in each case.

B2: Dabcyl-EEDKLFRAL (peptide)
peptide: {Dabcyl′}-EEDKLFRAL
notes: Acyl-side cleavage product of the FRET peptide; also called product
In series [6], B2 yielded a koff of 6 s⁻¹.

B3: SBT189-Dabcyl conjugate (protein)
chain: T3 chain
On to B3, for which the Relative k2/KS turned out to be 0.32 in [7]; 0.03 in series [8]; 1 in [9]; 0.004 in [10]; 0.04 in series [11]; 0.001 in [12]. Further, the Relative k2/KS turned out to be 0.01 in [13] and 0.027 in series [14]. Also, the acylation rate (k2) came to 1 s⁻¹ in [7]; 0.23 s⁻¹ in [8]; 1.4 s⁻¹ in series [9]; 0.017 s⁻¹ in [10]; 0.23 s⁻¹ in series [11]; 0.17 s⁻¹ in [12]. Besides, the acylation rate (k2) turned out to be 0.59 s⁻¹ in [13] and 0.06 s⁻¹ in [14]. Further, in series [9], the “activity against the cognate sequence, relative to VFKAM-SG” value was 250-times greater.

B4: RSUB1(AF350) (protein)
chain: T3 chain
As to B4, in series [15], the “rate of GB release in saturating azide” value came to 6.4 s⁻¹ and the “rate of GB release with no azide present” value is 0.0019 s⁻¹.

B5: subtilisin variant SBT189 (protein)
chain: T3 chain
Take B5: in [9], the “digestion of the fusion protein, protein gel and MALDI-MS” value is “The fusion protein was correctly and specifically processed to release GB-LFRAL and SA-GFP”. Further, the “cleavage rate in the absence of azide” value in series [15] stood at 0.12 min⁻¹. Besides, the “release of free SBT189 from the complex” value in [4] is “about 1 days^-1”. Moreover, in series [5], the “complete activation of SBT189 from the complex” value is “occurs within 10 minutes” and the “increase of the protease signal from the complex” value is recorded as “increases about 10^4-fold in 10 minutes (from 10 nM to 100 µM)”.

B6: prodomain variant pS170 (other)
chain: T1 chain with M18Y, S19K
notes: M18Y, S19K, A74F, H75K against the prodomain; also called p5170
For the molecule B6, the binding result in series [16] is on record as “binds”. The “time to complete activation of SBT189 from the complex” value in series [17] (setting [18]) is at most 10 min. For the same molecule, in [17] (in 10 minutes (from 10 nM to 100 μM)), the “increase of protease signal” value is recorded as “about 10^4 fold”.

B7: pS156 (protein)
chain: T1 chain
For B7, the “rate of release of free SBT189 from the complex” value in series [17] (setting [18]) is “about 1 days^−1”.
